Measured values reported in patent publication US20250333541A1, “ANTIBODY, AND DRUG CONJUGATE AND USE THEREOF” (EVOPOINT BIOSCIENCES CO., LTD., priority 2022, published 2025).

T1: cynomolgus monkey TF-His (cynomolgus monkey, UniProt A0A2K5VX02 33-253)
T1 construct: range 33-252; Recombinant extracellular segment expressed in HEK293-EBNA cells and purified on a nickel column; also called c.TF-His; c; TF-his; not shown: His tag from vector pTT5-His
T1 sequence: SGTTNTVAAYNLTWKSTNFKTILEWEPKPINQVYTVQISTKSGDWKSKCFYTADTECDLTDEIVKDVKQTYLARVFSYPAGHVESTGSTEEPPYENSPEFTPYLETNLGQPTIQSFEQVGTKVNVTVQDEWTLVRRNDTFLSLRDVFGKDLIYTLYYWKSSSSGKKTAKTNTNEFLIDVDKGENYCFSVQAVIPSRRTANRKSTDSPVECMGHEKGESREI

B1: 22F11H5-hz1 (antibody, human IgG1, kappa, V domains shown)
VH: QVQLVQSGAEVKQPGASVKVSCKASGYTFTTYWMHWVRQAPGQGLEWMGMIDPSDSYTTYAQKFQGRVTLTVDTSTSTAYMELSSLRSEDTAVYYCARGSGPGLFAYWGQGTLVTVSS
VL: DIQETQSPSSLSASVGDRVTITCRASQDIRNYLNWYQQKPGKAPKLLIYHTSRLQSGVPSRFSGSGSGTDYTLTISSLQPEDFATYYCQQGNMPPYTFGQGTKVEIKR
notes: Humanized IgG1 kappa
B2: 27H8H3-hz1 (antibody, human IgG1, kappa, V domains shown)
VH: QVQLVQSGAEVKKPGASVKVSCKASGYTFTTYWMHWVRQAPGQGLEWMGMIDPSDSYTSYAQKFQGRVTLTVDTSTSTAYMELSSLRSEDTAVYYCTRGSGPGLFAYWGQGTLVTVSS
VL: DIQETQSPSSLSASVGDRVTITCRASQGISNYLNWYQQKPGKAPKLLIYHTSRLHSGVPSRFSGSVSGTDFTLTISSLQPEDFATYFCQQGNTLPYTFGQGTKVEIKR
notes: Humanized IgG1 kappa

Columns and labels:
cynomolgus monkey TF-His [1] = biological target: T1, cynomolgus monkey TF-His; assay: ELISA, plate coated with c.TF-His
Experimental: (§1) The ELISA plate was coated overnight with TF antigen (h.TF-His or c.TF-His antigen) in 50 mM carbonate coating buffer (CBS coating solution) at a coating concentration of 1 μg/mL in a volume of 100 μL at 4° C. The next day, the coating solution was removed, each well was washed once with 300 μL of PBS, and 100 μL of 2% BSA (Biotopped, A6020) in PBS was added to each well for blocking at 37° C. for 2 h. The test sample was subjected to a gradient dilution with 2% BSA in PBS to establish 11 concentration points. 100 μL of each of the samples obtained by the gradient dilution was added to the plate, and the plate was incubated at 37° C. for 2 h. The supernatant was removed, and each well was washed three times with 300 μL of PBST. 100 μL of HRP-conjugated secondary antibody in 2% BSA was added to each well, and the plate was incubated at 37° C. for 1 h. […] At the end of the incubation, the secondary antibody was removed, each well was washed five times with 300 μL of PBST, and 100 μL of TMB substrate (Huzhou InnoReagents Co., Ltd., TMB-S-004) was added to each well for color development for 5-20 min. 50 μL of 2 N HCl was added to each well to stop the reaction, and OD450 nm values were read using a microplate reader (manufacturer: MD, model: SpectraMax) and imported into GraphPad software for fitting and plotting to determine the binding of the samples to TF antigenic proteins.
The assay was performed as described in the general methods. Briefly, an ELISA plate coated with a human TF-his protein or a cynomolgus monkey TF-his protein was blocked with 2% BSA at 37° C. for 2 h, and each of the antibodies obtained by the gradient dilution (starting at 10 μg/mL, 3-fold graded dilution, 11 concentration points) was added. The plate was incubated at 37° C. for 2 h.

[2] = biological target: T2, tissue factor (TF) on the surface of TF-positive tumor cells (human, UniProt P13726 33-295); assay: flow cytometry on KYSE520 cells
T2 construct: whole, on cells; The cell line used is named under assay or readout in each row; also called TF on NCI-H358 cells; TF on KYSE520 cells
Experimental: (§2) A TF low/medium-expressing cell line NCI-H358 (source: Nanjing Cobioer, CBP60136) and a TF high-expressing cell line KYSE520 (source: Nanjing Cobioer, CBP60658) were digested with trypsin, collected by centrifugation, and washed three times with pre-cooled PBS. The cells were resuspended in 1% BSA and seeded into a 96-well sharp-bottom plate at 3×10⁵ cells/well. Each of the antibodies obtained by the gradient dilution was added, and the plate was incubated at 4° C. for 1 h. The cells were washed three times with pre-cooled PBS. 1 μL of anti-human fluorescent secondary antibody (APC anti-human IgG Fc Antibody, Biolegend, 410712) was added to each well, and the plate was incubated at 4° C. for 0.5 h. The cells were washed three times with pre-cooled PBS, resuspended, and detected by a flow cytometer (Sony, LE-SA3800GA). The data were imported into GraphPad software for curve fitting.

human TF-His [3] = biological target: T3, human TF-His (human, UniProt P13726 33-251); assay: antigenic protein-based ELISA on TF antigen (coating antigen not named, taken as human TF-His), antibody kept 14 days in human serum at 37 C
T3 construct: range 33-251; Recombinant extracellular segment expressed in HEK293-EBNA cells and purified on a nickel column; also called h.TF-His; h; TF-his; not shown: His tag from vector pTT5-His
Experimental: as §1, with “proteins. […]” for “proteins.”

[4] = biological target: T2, tissue factor (TF) on the surface of …; assay: flow cytometry on NCI-H358 cells
Experimental: as §2

human TF-His [5] = biological target: T3, human TF-His; assay: antigenic protein-based ELISA, before conjugation (TF antigen species not stated)
Experimental: as §1

human TF-His [6] = biological target: T3, human TF-His; assay: antigenic protein-based ELISA on TF antigen (coating antigen not named, taken as human TF-His), antibody diluted in human serum, 0 days at 37 C
Experimental: as §1, with “proteins. […]” for “proteins.”

cynomolgus monkey TF-His [7] = biological target: T1, cynomolgus monkey TF-His; assay: BLI (ForteBio Octet), antibody on ProA sensor, TF-His as analyte
Experimental: (§3) The dynamic affinity of the humanized antibodies was determined by ForteBio. The experimental procedures were as follows: a ProA sensor (18-5010, Octet) was taken out and pre-wetted with a PBST diluent (pH 7.4) for 10 min. The antibodies to be immobilized were diluted to 5 μg/mL. […] The program was set up, the sensor plate and sample plate were put in, then the program started. The sensor was regenerated with 20 mM glycine solution (pH 1.7). The data were analyzed using Octet analysis software to derive a result graph.

human TF-His [8] = biological target: T3, human TF-His; assay: as above
Experimental: as §3

| Binder | EC50 (cynomolgus monkey TF-His [1]) | EC50 [2] | EC50 (read off the curve) (human TF-His [3]) | EC50 [4] | EC50 (human TF-His [5]) | EC50 (read off the curve) (human TF-His [6]) | Kd (cynomolgus monkey TF-His [7]) | koff (cynomolgus monkey TF-His [7]) | kon (cynomolgus monkey TF-His [7]) | Kd (human TF-His [8]) | koff (human TF-His [8]) | kon (human TF-His [8]) |
| --- | --- | --- | --- | --- | --- | --- | --- | --- | --- | --- | --- | --- |
| B1 | 0.0114 µg/mL | 0.0357 µg/mL | ~0.03 µg/mL | 0.0671 µg/mL | 0.00515 µg/mL | ~0.03 µg/mL | 12.7 nM | 0.00411 s⁻¹ | 324000 M⁻¹ s⁻¹ | 9.8 nM | 0.00296 s⁻¹ | 302000 M⁻¹ s⁻¹ |
| B2 | 0.0114 µg/mL | 0.0594 µg/mL | ~0.05 µg/mL | 0.0991 µg/mL | 0.00313 µg/mL | ~0.05 µg/mL | 42.5 nM | 0.0125 s⁻¹ | 295000 M⁻¹ s⁻¹ | 42.5 nM | 0.0116 s⁻¹ | 273000 M⁻¹ s⁻¹ |
